Data on 18 molecules can be found in patent US20230133381A1.

B1: DA35 (antibody, V domains shown)
VH: AVTLDESGGGLQTPGGGLSLVCKGSGFTFSSFNMLWVRQAPGKGLEWVAGIGKSDRYTGYGSAVKGRATISRDDGQSTARLQMNSLRAEDTAVYYCVKDAGSGCGSGGWTGACIDTWGHGTEVIVSS
VL: LTQPSSVSANLGGTVEITCSGGDSYAGSYYYGWYQQKAPGSAPVTVIYNNNNRPSNIPSRFSGSTSGSTATLTITGVQAEDEATYFCGSRDSSYVGIFGAGTTLTVL
B2: DA27 (antibody, V domains shown)
VH: AVTLDESGGGLQTPGGGLSLVCKGSGFTFSSFNMLWVRQAPGKGLEWVAGIGKSDRYTGYGSAVKGRATISRDDGQSTVRLQLNNLRAEDTGTYYCVKDAGSGCGSGGWTGACIDTWGHGTEVIVSS
VL: LTQPSSVSANLGGTVEITCSGGDSYAGSYYYGWYQQKAPGSAPVTVIYNNNNRPSNIPSRFSGSTSGSTATLTITGVQAEDEATYFCGSRDSSYVGIFGAGTTLTVL
B3: DA24 (antibody, V domains shown)
VH: AVTLDESGGGLQTPGGGLSLVCKGSGFTFSSFNMLWVRQAPGKGLEWVAGIGKSDRYTGYGSAVKGRATISRDDGQSTVRLQLNNLRAEDTGTYYCVKDAGSGCGSGGWTGACIDTWGHGTEVIVSS
VL: LTQPSSVSANLGGTVEITCSGGDSYAGSYYYGWYQQKAPGSAPVTVIYNNNNRPSNIPSRFSGSTSGSTATLTITGVQAEDEATYYCGSRDSSYVGIFGAGTTLTVL
B4: DA25 (antibody, V domains shown)
VH: AVTLDESGGGLQTPGGGLSLVCKGSGFTFSSFNMLWVRQAPGKGLEWVAGIGKSDRYTGYGSAVKGRATISRDDGQSTVYLQMNSLRAEDTGTYYCVKDAGSGCGSGGWTGACIDTWGHGTEVIVSS
VL: LTQPSSVSANLGGTVEITCSGGDSYAGSYYYGWYQQKAPGSAPVTVIYNNNNRPSNIPSRFSGSTSGSTATLTITGVQAEDEAVYFCGSRDSSYVGIFGAGTTLTVL
B5: DA32 (antibody, V domains shown)
VH: AVTLDESGGGLQTPGGGLSLVCKGSGFTFSSFNMLWVRQAPGKGLEWVAGIGKSDRYTGYGSAVKGRATISRDDGQSTVRLQLNNLRAEDTAVYYCVKDAGSGCGSGGWTGACIDTWGHGTEVIVSS
VL: LTQPSSVSANLGGTVEITCSGGDSYAGSYYYGWYQQKAPGSAPVTVIYNNNNRPSNIPSRFSGSTSGSTATLTITGVQAEDEAVYFCGSRDSSYVGIFGAGTTLTVL
B6: DA3 (antibody, V domains shown)
VH: EVQLVESGGGLVQPGGSLRLSCAASGFTFSSFNMLWVRQAPGKGLEWVAGIGKSDRYTGYGSAVKGRFTISRDTSKSTVYLQMNSLRAEDTAVYYCVRDAGSGCGSGGWTGACIDTWGQGTLVTVSS
VL: DIQMTQSPSSLSASVGDRVTITCSGGDSYAGSYYYGWYQQKPGKAPKTLIYNNNNRPSGVPSRFSGSTSGTDFTLTISSLQPEDFATYYCGSRDSSYVGIFGQGTKVEIK
B7: DA12 (antibody, V domains shown)
VH: EVQLVESGGGLVQPGGSLRLSCAASGFTFSSFNMLWVRQAPGKGLEWVAGIGKSDRYTGYGSAVKGRFTISRDTSKNTAYLQMNSLRAEDTAVYYCSRDAGSGCGSGGWTGACIDTWGQGTLVTVSS
VL: DIQMTQSPSSLSASVGDRVTITCSGGDSYAGSYYYGWYQQKPGKAPKTLIYNNNNLMPGVPSRFSGSRSGTDFTLTISSLQPEDFATYYCGSRDSSYVGIFGQGTKVEIK
B8: DA16 (antibody, V domains shown)
VH: EVQLVESGGGLVQPGGSLRLSCAASGFTFSSFNMLWVRQAPGKGLEWVAGIGKSDRYTGYGSAVKGRFTISRDTSKNTAYLQMNSLRAEDTAVYYCSRDAGSGCGSGGWTGACIDTWGQGTLVTVSS
VL: DIQMTQSPSSLSASVGDRVTITCSGGDSYAGSYYYGWYQQKPGKAPKTLIYNNNNRPSGVPSRFSGSRSGTDFTLTISSLQPEDFATYYCGSRDSSGAGGFGQGTKVEIK
B9: DA20 (antibody, V domains shown)
VH: EVQLVESGGGLVQPGGSLRLSCAASGFTFSSFNMLWVRQAPGKGLEWVAGIGKSDRYTGYGSAVKGRFTISRDDSKSTVYLQMNSLRAEDTAVYYCVRDAGSGCGSGGWTGACIDTWGQGTLVTVSS
VL: DIQMTQSPSSLSASVGDRVTITCSGGDSYAGSYYYGWYQQKPGKAPKTLIYNNNNRPSGVPSRFSGSRSGTDFTLTISSLQPEDFATYYCGSRDSAGMGAFGQGTKVEIK
B10: DA2 (antibody, V domains shown)
VH: EVQLVESGGGLVQPGGSLRLSCAASGFTFSSFNMLWVRQAPGKGLEWVAGIGKSDRYTGYGSAVKGRFTISRDDSKSTVYLQMNSLRAEDTAVYYCVRDAGSGCGSGGWTGACIDTWGQGTLVTVSS
VL: DIQMTQSPSSLSASVGDRVTITCSGGDSYAGSYYYGWYQQKPGKAPKTLIYNNNNRPSGVPSRFSGSRSGTDFTLTISSLQPEDFATYYCGSRDSSYVGIFGQGTKVEIK
B11: DA21 (antibody, V domains shown)
VH: EVQLVESGGGLVQPGGSLRLSCAASGFTFSSFNMLWVRQAPGKGLEWVAGIGKSDRYTGYGSAVKGRFTISRDDSKSTVYLQMNSLRAEDTAVYYCVRDAGSGCGSGGWTGACIDTWGQGTLVTVSS
VL: DIQMTQSPSSLSASVGDRVTITCSGGDSYAGSYYYGWYQQKPGKAPKTLIYNNNNRPSGVPSRFSGSRSGTDFTLTISSLQPEDFATYYCGSRDSSGAGGFGQGTKVEIK
B12: DA10 (antibody, V domains shown)
VH: EVQLVESGGGLVQPGGSLRLSCAASGFTFSSFNMLWVRQAPGKGLEWVAGIGKSDRYTGYGSAVKGRFTISRDTSKNTAYLQMNSLRAEDTAVYYCSRDAGSGCGSGGWTGACIDTWGQGTLVTVSS
VL: DIQMTQSPSSLSASVGDRVTITCSGGDSYAGSYYYGWYQQKPGKAPKTLIYNNNNRPSGVPSRFSGSRSGTDFTLTISSLQPEDFATYYCGSRDSSYVGIFGQGTKVEIK
B13: DA6 (antibody, V domains shown)
VH: EVQLVESGGGLVQPGGSLRLSCAASGFTFSSFNMLWVRQAPGKGLEWVAGIGKSDRYTGYGSAVKGRFTISRDDSKSTVYLQMNSLRAEDTAVYYCARDAGSGCGSGGWTGACIDTWGQGTLVTVSS
VL: DIQMTQSPSSLSASVGDRVTITCSGGDSYAGSYYYGWYQQKPGKAPKTLIYNNNNRPSGVPSRFSGSTSGTDFTLTISSLQPEDFATYYCGSRDSSYVGIFGQGTKVEIK
B14: DA7 (antibody, V domains shown)
VH: EVQLVESGGGLVQPGGSLRLSCAASGFTFSSFNMLWVRQAPGKGLEWVAGIGKSDRYTGYGSAVKGRFTISRDDSKSTVYLQMNSLRAEDTAVYYCSRDAGSGCGSGGWTGACIDTWGQGTLVTVSS
VL: DIQMTQSPSSLSASVGDRVTITCSGGDSYAGSYYYGWYQQKPGKAPKTLIYNNNNRPSGVPSRFSGSTSGTDFTLTISSLQPEDFATYYCGSRDSSYVGIFGQGTKVEIK
B15: DA4 (antibody, V domains shown)
VH: EVQLVESGGGLVQPGGSLRLSCAASGFTFSSFNMLWVRQAPGKGLEWVAGIGKSDRYTGYGSAVKGRFTISRDDSKNTVYLQMNSLRAEDTAVYYCVRDAGSGCGSGGWTGACIDTWGQGTLVTVSS
VL: DIQMTQSPSSLSASVGDRVTITCSGGDSYAGSYYYGWYQQKPGKAPKTLIYNNNNRPSGVPSRFSGSTSGTDFTLTISSLQPEDFATYYCGSRDSSYVGIFGQGTKVEIK
B16: DA14 (antibody, V domains shown)
VH: EVQLVESGGGLVQPGGSLRLSCAASGFTFSSFNMLWVRQAPGKGLEWVAGIGKSDRYTGYGSAVKGRFTISRDTSKNTAYLQMNSLRAEDTAVYYCSRDAGSGCGSGGWTGACIDTWGQGTLVTVSS
VL: DIQMTQSPSSLSASVGDRVTITCSGGDSYAGSYYYGWYQQKPGKAPKTLIYNNNNKAKGVPSRFSGSRSGTDFTLTISSLQPEDFATYYCGSRDSSYVGIFGQGTKVEIK
B17: DA1 (antibody, V domains shown)
VH: EVQLVESGGGLVQPGGSLRLSCAASGFTFSSFNMLWVRQAPGKGLEWVAGIGKSDRYTGYGSAVKGRFTISRDDSKSTVYLQMNSLRAEDTAVYYCVRDAGSGCGSGGWTGACIDTWGQGTLVTVSS
VL: DIQMTQSPSSLSASVGDRVTITCSGGDSYAGSYYYGWYQQKPGKAPKTLIYNNNNRPSGVPSRFSGSTSGTDFTLTISSLQPEDFATYYCGSRDSSYVGIFGQGTKVEIK
B18: DA13 (antibody, V domains shown)
VH: EVQLVESGGGLVQPGGSLRLSCAASGFTFSSFNMLWVRQAPGKGLEWVAGIGKSDRYTGYGSAVKGRFTISRDTSKNTAYLQMNSLRAEDTAVYYCSRDAGSGCGSGGWTGACIDTWGQGTLVTVSS
VL: DIQMTQSPSSLSASVGDRVTITCSGGDSYAGSYYYGWYQQKPGKAPKTLIYNNNNRPSGVPSRFSGSRSGTDFTLTISSLQPEDFATYYCGSRDSAGMGAFGQGTKVEIK

By Kd is commonly meant the free concentration of one partner at which half of the binding sites on the other are occupied at equilibrium, for simple one-to-one binding. Lower therefore signals higher affinity. What is called koff is the rate constant with which the complex falls apart. High values mean fast dissociation, low ones slow dissociation. By kon is commonly meant a measure of how fast the partners come together. A low value points to slower complex formation.

For the assay, the target named is human DR5 (human). The assay is described as follows: SPR (BIAcore X100), human DR5 on CM5 chip, IgG injected, 1:1 Langmuir model. A general note: Surface plasmon resonance follows binding to a sensor surface in real time, without labels.
As for B1, the Kd turned out to be 80.1 pM, the koff was determined as 9.12e-05 s⁻¹ and the kon came out at 1.13e+06 M⁻¹ s⁻¹.

B2 came in with a Kd of 1.92 pM, a koff of 2.24e-06 s⁻¹ and a kon of 1.17e+06 M⁻¹ s⁻¹.

Molecule B3 displayed a Kd of 1.02 pM, a koff of 1.23e-06 s⁻¹ and a kon of 1.2e+06 M⁻¹ s⁻¹.

The molecule B4 returned a Kd of 1.62 pM, a koff of 1.71e-06 s⁻¹ and an on-rate (kon) of 1.05e+06 M⁻¹ s⁻¹.

In the case of B5, the dissociation constant (Kd) was 75.1 pM, the koff was 8.59e-05 s⁻¹ and the kon amounted to 1.14e+06 M⁻¹ s⁻¹.

B6 registered a koff of less than 1e-05 s⁻¹ and an on-rate constant (kon) of 4.9e+06 M⁻¹ s⁻¹.

The molecule B7 came in with a Kd of 12.7 pM, a koff of 2.99e-05 s⁻¹ and a kon of 2.37e+06 M⁻¹ s⁻¹.

With B8, the Kd worked out at 26.1 pM, the koff was determined as 5.53e-05 s⁻¹ and the kon was found to be 2.11e+06 M⁻¹ s⁻¹.

For B9, the Kd is 12 pM, the koff stood at 1.21e-05 s⁻¹ and the on-rate (kon) stood at 1e+06 M⁻¹ s⁻¹.

In turn, B10 displayed a Kd of less than 5.3 pM and a kon of 1.9e+06 M⁻¹ s⁻¹.

Regarding B11, the equilibrium dissociation constant (Kd) turned out to be 6.43 pM, the koff worked out at 7.17e-06 s⁻¹ and the kon stood at 1.11e+06 M⁻¹ s⁻¹.

For B12, the Kd was 7 pM, the koff came out at 1.6e-05 s⁻¹ and the kon was determined as 2.3e+06 M⁻¹ s⁻¹.

B13: the Kd was found to be 0.53 pM, the off-rate (koff) was 4.2e-06 s⁻¹ and the kon amounted to 7.8e+06 M⁻¹ s⁻¹.

The molecule B14 returned a Kd of 1.9 pM, a koff of 2.9e-06 s⁻¹ and a kon of 1.4e+06 M⁻¹ s⁻¹.

B15 registered a Kd of 0.1 pM, a koff of 1.2e-07 s⁻¹ and a kon of 1.2e+06 M⁻¹ s⁻¹.

In turn, B16 showed an equilibrium dissociation constant (Kd) of 23.5 pM, a dissociation rate constant (koff) of 0.0001 s⁻¹ and a kon of 4.27e+06 M⁻¹ s⁻¹.

Molecule B17 displayed a Kd of less than 2 pM, a koff of less than 1e-05 s⁻¹ and a kon of 4.9e+06 M⁻¹ s⁻¹.

B18 displayed a Kd of 11.2 pM, a koff of 2.94e-05 s⁻¹ and a kon of 2.62e+06 M⁻¹ s⁻¹.
